B1: Pme THC #5: cell free supernatant with THCA synthase from a pPink yeast colony transformed with Pme I linearized THCA synthase plasmid (protein, UniProt Q8GTB6 29-545, looked up)
Tetrahydrocannabinolic acid …: NPRENFLKCFSKHIPNNVANPKLVYTQHDQLYMSILNSTIQNLRFISDTTPKPLVIVTPSNNSHIQATILCSKKVGLQIRTRSGGHDAEGMSYISQVPFVVVDLRNMHSIKIDVHSQTAWVEAGATLGEVYYWINEKNENLSFPGGYCPTVGVGGHFSGGGYGALMRNYGLAADNIIDAHLVNVDGKVLDRKSMGEDLFWAIRGGGGENFGIIAAWKIKLVAVPSKSTIFSVKKNMEIHGLVKLFNKWQNIAYKYDKDLVLMTHFITKNITDNHGKNKTTVHGYFSSIFHGGVDSLVDLMNKSFPELGIKKTDCKEFSWIDTTIFYSGVVNFNTANFKKEILLDRSAGKKTAFSIKLDYVKKPIPETAMVKILEKLYEEDVGAGMYVLYPYGGIMEEISESAIPFPHRAGIMYELWYTASWEKQEDNEKHINWVRSVYNFTTPYVSQNPRLAYLNYRDLDLGKTNHASPNNYTQARIWGEKYFGKNFNRLVKVKTKVDPNNFFRNEQSIPPLPPHHH
modifications: yeast culture supernatant
notes: cell free supernatant with THCA synthase from a pPink yeast colony transformed with Pme I linearized THCA synthase plasmid
B2: Pme THC(2) #41: cell free supernatant with THCA synthase from a pPink yeast colony transformed with Pme I linearized THCA synthase plasmid (protein, UniProt Q8GTB6 29-545, looked up)
Tetrahydrocannabinolic acid …: NPRENFLKCFSKHIPNNVANPKLVYTQHDQLYMSILNSTIQNLRFISDTTPKPLVIVTPSNNSHIQATILCSKKVGLQIRTRSGGHDAEGMSYISQVPFVVVDLRNMHSIKIDVHSQTAWVEAGATLGEVYYWINEKNENLSFPGGYCPTVGVGGHFSGGGYGALMRNYGLAADNIIDAHLVNVDGKVLDRKSMGEDLFWAIRGGGGENFGIIAAWKIKLVAVPSKSTIFSVKKNMEIHGLVKLFNKWQNIAYKYDKDLVLMTHFITKNITDNHGKNKTTVHGYFSSIFHGGVDSLVDLMNKSFPELGIKKTDCKEFSWIDTTIFYSGVVNFNTANFKKEILLDRSAGKKTAFSIKLDYVKKPIPETAMVKILEKLYEEDVGAGMYVLYPYGGIMEEISESAIPFPHRAGIMYELWYTASWEKQEDNEKHINWVRSVYNFTTPYVSQNPRLAYLNYRDLDLGKTNHASPNNYTQARIWGEKYFGKNFNRLVKVKTKVDPNNFFRNEQSIPPLPPHHH
modifications: yeast culture supernatant
notes: as for B1
B3: Pme THC(2) #2A: cell free supernatant with THCA synthase from a pPink yeast colony transformed with Pme I linearized THCA synthase plasmid (protein, UniProt Q8GTB6 29-545, looked up)
Tetrahydrocannabinolic acid …: NPRENFLKCFSKHIPNNVANPKLVYTQHDQLYMSILNSTIQNLRFISDTTPKPLVIVTPSNNSHIQATILCSKKVGLQIRTRSGGHDAEGMSYISQVPFVVVDLRNMHSIKIDVHSQTAWVEAGATLGEVYYWINEKNENLSFPGGYCPTVGVGGHFSGGGYGALMRNYGLAADNIIDAHLVNVDGKVLDRKSMGEDLFWAIRGGGGENFGIIAAWKIKLVAVPSKSTIFSVKKNMEIHGLVKLFNKWQNIAYKYDKDLVLMTHFITKNITDNHGKNKTTVHGYFSSIFHGGVDSLVDLMNKSFPELGIKKTDCKEFSWIDTTIFYSGVVNFNTANFKKEILLDRSAGKKTAFSIKLDYVKKPIPETAMVKILEKLYEEDVGAGMYVLYPYGGIMEEISESAIPFPHRAGIMYELWYTASWEKQEDNEKHINWVRSVYNFTTPYVSQNPRLAYLNYRDLDLGKTNHASPNNYTQARIWGEKYFGKNFNRLVKVKTKVDPNNFFRNEQSIPPLPPHHH
modifications: yeast culture supernatant
notes: as for B1
B4: Pme THC(2) #36: cell free supernatant with THCA synthase from a pPink yeast colony transformed with Pme I linearized THCA synthase plasmid (protein, UniProt Q8GTB6 29-545, looked up)
Tetrahydrocannabinolic acid …: NPRENFLKCFSKHIPNNVANPKLVYTQHDQLYMSILNSTIQNLRFISDTTPKPLVIVTPSNNSHIQATILCSKKVGLQIRTRSGGHDAEGMSYISQVPFVVVDLRNMHSIKIDVHSQTAWVEAGATLGEVYYWINEKNENLSFPGGYCPTVGVGGHFSGGGYGALMRNYGLAADNIIDAHLVNVDGKVLDRKSMGEDLFWAIRGGGGENFGIIAAWKIKLVAVPSKSTIFSVKKNMEIHGLVKLFNKWQNIAYKYDKDLVLMTHFITKNITDNHGKNKTTVHGYFSSIFHGGVDSLVDLMNKSFPELGIKKTDCKEFSWIDTTIFYSGVVNFNTANFKKEILLDRSAGKKTAFSIKLDYVKKPIPETAMVKILEKLYEEDVGAGMYVLYPYGGIMEEISESAIPFPHRAGIMYELWYTASWEKQEDNEKHINWVRSVYNFTTPYVSQNPRLAYLNYRDLDLGKTNHASPNNYTQARIWGEKYFGKNFNRLVKVKTKVDPNNFFRNEQSIPPLPPHHH
modifications: yeast culture supernatant
notes: as for B1
B5: Pme THC(2) #25: cell free supernatant with THCA synthase from a pPink yeast colony transformed with Pme I linearized THCA synthase plasmid (protein, UniProt Q8GTB6 29-545, looked up)
Tetrahydrocannabinolic acid …: NPRENFLKCFSKHIPNNVANPKLVYTQHDQLYMSILNSTIQNLRFISDTTPKPLVIVTPSNNSHIQATILCSKKVGLQIRTRSGGHDAEGMSYISQVPFVVVDLRNMHSIKIDVHSQTAWVEAGATLGEVYYWINEKNENLSFPGGYCPTVGVGGHFSGGGYGALMRNYGLAADNIIDAHLVNVDGKVLDRKSMGEDLFWAIRGGGGENFGIIAAWKIKLVAVPSKSTIFSVKKNMEIHGLVKLFNKWQNIAYKYDKDLVLMTHFITKNITDNHGKNKTTVHGYFSSIFHGGVDSLVDLMNKSFPELGIKKTDCKEFSWIDTTIFYSGVVNFNTANFKKEILLDRSAGKKTAFSIKLDYVKKPIPETAMVKILEKLYEEDVGAGMYVLYPYGGIMEEISESAIPFPHRAGIMYELWYTASWEKQEDNEKHINWVRSVYNFTTPYVSQNPRLAYLNYRDLDLGKTNHASPNNYTQARIWGEKYFGKNFNRLVKVKTKVDPNNFFRNEQSIPPLPPHHH
modifications: yeast culture supernatant
notes: as for B1
B6: Pme THC(2) #42: cell free supernatant with THCA synthase from a pPink yeast colony transformed with Pme I linearized THCA synthase plasmid (protein, UniProt Q8GTB6 29-545, looked up)
Tetrahydrocannabinolic acid …: NPRENFLKCFSKHIPNNVANPKLVYTQHDQLYMSILNSTIQNLRFISDTTPKPLVIVTPSNNSHIQATILCSKKVGLQIRTRSGGHDAEGMSYISQVPFVVVDLRNMHSIKIDVHSQTAWVEAGATLGEVYYWINEKNENLSFPGGYCPTVGVGGHFSGGGYGALMRNYGLAADNIIDAHLVNVDGKVLDRKSMGEDLFWAIRGGGGENFGIIAAWKIKLVAVPSKSTIFSVKKNMEIHGLVKLFNKWQNIAYKYDKDLVLMTHFITKNITDNHGKNKTTVHGYFSSIFHGGVDSLVDLMNKSFPELGIKKTDCKEFSWIDTTIFYSGVVNFNTANFKKEILLDRSAGKKTAFSIKLDYVKKPIPETAMVKILEKLYEEDVGAGMYVLYPYGGIMEEISESAIPFPHRAGIMYELWYTASWEKQEDNEKHINWVRSVYNFTTPYVSQNPRLAYLNYRDLDLGKTNHASPNNYTQARIWGEKYFGKNFNRLVKVKTKVDPNNFFRNEQSIPPLPPHHH
modifications: yeast culture supernatant
notes: as for B1
B7: Pme THC(2) #1: cell free supernatant with THCA synthase from a pPink yeast colony transformed with Pme I linearized THCA synthase plasmid (protein, UniProt Q8GTB6 29-545, looked up)
Tetrahydrocannabinolic acid …: NPRENFLKCFSKHIPNNVANPKLVYTQHDQLYMSILNSTIQNLRFISDTTPKPLVIVTPSNNSHIQATILCSKKVGLQIRTRSGGHDAEGMSYISQVPFVVVDLRNMHSIKIDVHSQTAWVEAGATLGEVYYWINEKNENLSFPGGYCPTVGVGGHFSGGGYGALMRNYGLAADNIIDAHLVNVDGKVLDRKSMGEDLFWAIRGGGGENFGIIAAWKIKLVAVPSKSTIFSVKKNMEIHGLVKLFNKWQNIAYKYDKDLVLMTHFITKNITDNHGKNKTTVHGYFSSIFHGGVDSLVDLMNKSFPELGIKKTDCKEFSWIDTTIFYSGVVNFNTANFKKEILLDRSAGKKTAFSIKLDYVKKPIPETAMVKILEKLYEEDVGAGMYVLYPYGGIMEEISESAIPFPHRAGIMYELWYTASWEKQEDNEKHINWVRSVYNFTTPYVSQNPRLAYLNYRDLDLGKTNHASPNNYTQARIWGEKYFGKNFNRLVKVKTKVDPNNFFRNEQSIPPLPPHHH
modifications: yeast culture supernatant
notes: as for B1

The molecules below were run against T1, THCA synthase (Cannabis sativa, UniProt Q8GTB6) (assay: catalytic activity of THCA synthase from independent colonies of transformed pPink yeast cells (conversion of CBGA to THCA)). Conditions: 25 μl cell free supernatant of T3 sample, 100 mM citrate buffer, 10% DMSO, final pH 5.0, 2 hours at 30° C.
T1 construct: His-tag (C); made in house; host or cells: Pichia pastoris (PichiaPink, pPink-HC vector), secreted into the medium; cell-free T3 supernatant used
T1 sequence (Q8GTB6 29-545): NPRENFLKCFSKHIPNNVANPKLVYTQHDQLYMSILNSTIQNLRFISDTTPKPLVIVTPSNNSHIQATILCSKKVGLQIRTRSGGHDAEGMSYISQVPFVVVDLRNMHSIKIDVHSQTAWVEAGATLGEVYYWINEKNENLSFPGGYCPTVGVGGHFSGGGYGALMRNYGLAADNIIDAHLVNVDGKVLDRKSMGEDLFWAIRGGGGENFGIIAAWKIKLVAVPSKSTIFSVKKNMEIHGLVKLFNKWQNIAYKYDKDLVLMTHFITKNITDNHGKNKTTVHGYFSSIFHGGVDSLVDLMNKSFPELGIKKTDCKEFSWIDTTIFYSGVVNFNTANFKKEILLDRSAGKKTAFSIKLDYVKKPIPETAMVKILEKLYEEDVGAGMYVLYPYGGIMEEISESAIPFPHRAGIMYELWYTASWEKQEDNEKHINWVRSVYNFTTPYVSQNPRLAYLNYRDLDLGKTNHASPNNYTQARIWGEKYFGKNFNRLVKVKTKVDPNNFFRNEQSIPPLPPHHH
Assay type: biochemical
Description: After 24 hours a 100 μL of the cell sample was removed to which was added 100 μL of 40% methanol to induce enzyme production. This methanolic sample was then centrifuged at 12,000 rpm for 5 minutes and the supernatant and pellet were saved as the T1 sample. A second culture sample was obtained after a 48 hour incubation period and treated with methanol as described above. After centrifugation, the supernatant and pellet are saved as the T2 sample. At 72 hours the entire incubation mixture is treated with an appropriate volume of 40% methanol. The supernatant and pellet obtained from methanolic treatment of the culture after a 72 hour incubation period is labeled as T3. The T3 supernatant was spun through an Amicon 30 kD protein filter and analyzed for protein using an SDS-PAGE gel.
The catalytic activity of THCA synthase was measured by incubating 25 μl of the cell free supernatant from a T3 sample with 25 μl of a 1 mg/ml CBGA stock in 200 μl of a 100 mM citrate buffer at pH 4.8 having 10% DMSO for 2 hours at 30° C. The final concentration of CBGA in the reaction mixture was 0.1 mg/ml and the final pH is 5.0. Table 4 illustrates the data related to the catalytic activity of THCA synthase obtained from independent colonies of transformed pPink yeast cells, namely. pPink yeast cells that were transformed using linearized THCA synthase plasmids. Culture samples that converted greater than 20% of the substrate CBGA to product THCA were selected for scale up.

Row | Molecule | % Conversion of CBGA to THCA in reaction containing 0.1 mg/ml CBGA.
1 | B1 | 32.5%
2 | B2 | 32.5%
3 | B3 | 27.2%
4 | B4 | 27.7%
5 | B5 | 31.6%
6 | B6 | 27.6%
7 | B7 | 29.1%

Reference: patent US10472652B2, “Chemical engineering processes and apparatus for the synthesis of compounds” (TEEWINOT T[…], priority 2013, dated 2019)
